Like-named read-outs stand apart in the source and are kept apart here.
Tests used:
Assay in all cases: fluorescence quenching
RAD51 WT [1] = target: T1, RAD51 WT (Homo sapiens, UniProt Q06609 1-339)
RAD51 E258A [2] = target: T2, RAD51 E258A (Homo sapiens, UniProt Q06609 1-339, E258A)
RAD51 WT [3] = target: T1, RAD51 WT; remark: listed apart in the source
RAD51 F86L [4] = target: T3, RAD51 F86L (Homo sapiens, UniProt Q06609 1-339, F86L)
RAD51 E258A [5] = target: T2, RAD51 E258A; remark: listed apart in the source
RAD51 F86L [6] = target: T3, RAD51 F86L; remark: listed apart in the source

T2 sequence (Q06609 whole entry E258A): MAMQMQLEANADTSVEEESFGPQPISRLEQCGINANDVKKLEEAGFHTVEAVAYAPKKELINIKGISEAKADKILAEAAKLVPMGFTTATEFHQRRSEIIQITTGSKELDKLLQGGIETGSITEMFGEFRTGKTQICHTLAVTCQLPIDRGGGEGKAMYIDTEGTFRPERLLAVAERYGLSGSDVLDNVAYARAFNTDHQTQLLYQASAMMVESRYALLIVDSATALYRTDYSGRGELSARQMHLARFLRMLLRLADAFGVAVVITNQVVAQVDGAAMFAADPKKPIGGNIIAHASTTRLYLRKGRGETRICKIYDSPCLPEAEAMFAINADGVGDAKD
T3 sequence (Q06609 whole entry F86L): as the sequence (Q06609 whole entry E258A) above, with F86L, A258E counted along it
T1 sequence (Q06609 whole entry): as the sequence (Q06609 whole entry E258A) above, with A258E counted along it

Binder | Kd (RAD51 WT [1]) [nM] | Kd (RAD51 E258A [2]) [nM] | Kd (RAD51 WT [3]) [nM] | Kd (RAD51 F86L [4]) [nM] | Kd (RAD51 E258A [5]) [nM] | Kd (RAD51 F86L [6]) [nM]
AAAAAAAAAAAAAAAAAAAAAAAAA (ssDNA) [oligo 9 ssDNA (AF546 poly-dA)] | 1900 ± 200 | 3100 ± 300 | 600 ± 100 | 4900 ± 400 |  | 
oligo 9/10 dsDNA (AF546) (dsDNA) DNA 1: AAAAAAAAAAAAAAAAAAAAAAAAA DNA 2: TTTTTTTTTTTTTTTTTTTTTTTTT | 800 ± 100 | 1300 ± 100 | 700 ± 100 | 1800 ± 200 | 2100 ± 100 | 1700 ± 100

— publication PMC5699509
